Assays:
[1] = system: H-NS (Escherichia coli); test: EMSA; details: EMSA: 10 mM Tris-HCl pH 8, 10 mM MgCl2, 100 mM NaCl, 10 mM KCl, 1 mM spermidine, 0.5 mM DTT, 5% glycerol, 0.08 mg/ml BSA, 50 ng poly dI-dC, 25 C, 15 min …
[2] = system: FIS (Escherichia coli); test: EMSA; details: EMSA: 10 mM Tris-HCl pH 8, 10 mM MgCl2, 100 mM NaCl, 10 mM KCl, 1 mM spermidine, 0.5 mM DTT, 5% glycerol, 0.08 mg/ml BSA, 50 ng poly dI-dC, 25 C, 15 min …

cspA promoter 310 bp fragment
binding signal [1]: 520 nM | binding signal [2]: 7 nM

— paper PMC4877382
